For one data set, the target named is T1, PepTSo2 (Shewanella oneidensis, UniProt Q8EHE6).
T1 sequence (Q8EHE6 1-516): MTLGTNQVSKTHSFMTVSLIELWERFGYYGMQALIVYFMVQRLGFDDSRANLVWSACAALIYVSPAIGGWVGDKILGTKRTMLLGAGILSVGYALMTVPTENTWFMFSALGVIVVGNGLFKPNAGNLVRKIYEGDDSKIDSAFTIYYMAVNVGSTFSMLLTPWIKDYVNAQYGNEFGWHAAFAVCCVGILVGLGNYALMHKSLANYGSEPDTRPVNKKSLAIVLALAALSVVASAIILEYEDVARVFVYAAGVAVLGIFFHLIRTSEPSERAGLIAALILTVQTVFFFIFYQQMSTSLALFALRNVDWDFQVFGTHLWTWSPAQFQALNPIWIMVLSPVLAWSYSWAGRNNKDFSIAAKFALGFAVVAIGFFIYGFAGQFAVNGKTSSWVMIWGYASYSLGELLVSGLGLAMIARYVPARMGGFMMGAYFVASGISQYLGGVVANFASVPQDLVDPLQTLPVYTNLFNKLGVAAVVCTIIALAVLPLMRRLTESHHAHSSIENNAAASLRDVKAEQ
The experiment in a line: MST di-/tripeptide binding in solution to PepTSo2. To be noted: 20 °C. From the text: (§1) The samples were loaded in standard glass capillaries. […] Empty SapNPs were used as control measurements.

Data set [1] has as its target T2, SapA/POPS empty nanoparticles (Homo sapiens, UniProt P07602).
T2 construct: saposin A (residues 60 to 140); made in house; host or cells: E. coli Rosetta gami-2 (DE3)
T2 sequence (P07602 60-140): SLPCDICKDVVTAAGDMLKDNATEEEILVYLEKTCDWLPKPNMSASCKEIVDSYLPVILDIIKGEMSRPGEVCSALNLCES
The experiment in a line: MST control for unspecific peptide binding to empty SapA/POPS nanoparticles.
From the text: as §1

A further data set concerns the target PepTSt. To be noted: MST, 20 °C.
In data set [2] the target is peptide transporter PepTSt from Streptococcus thermophilus (Streptococcus thermophilus) (UniProt Q5M4H8). The data set is described as follows: MST; label-free, transporter reconstituted in SapA/POPS nanoparticles at ~125 nM, 16 peptide concentrations, 1x PBS, 20 °C.
Data set [3] shares this target. The experiment in a line: MST; label-free, transporter reconstituted in SapA/BL (brain total lipid extract) nanoparticles at ~125 nM, 16 peptide concentrations, 1x PBS, 20 °C.
The target is the same in data set [4]. The data set is described as follows: MST; label-free (intrinsic tryptophan fluorescence), DDM-solubilised transporter at ~125 nM, 16 peptide concentrations, 20 mM Tris pH 7.5, 150 mM NaCl, 5 % glycerol, 0.03 % DDM, 20 °C.
For data set [5], the target named is small-conductance mechanosensitive channel T2 from Thermoplasma volcanium (Thermoplasma volcanium). The data set is described as follows: SEC-MALS; triple-detection SEC conjugate analysis (UV, refractive index, multi-angle light scattering); 60 uL T2 at 5 mg/mL on SD200 10/300 in 20 mM Tris pH 7.5, 150 mM NaCl, 5 % glycerol, 0.03 % DDM. (In general: SEC sorts molecules by how far they enter the pores of the column.)

On the set-up of data set [6]: method as in Frauenfeld et al., 2016. Conditions: ref Frauenfeld et al., 2016, cited from earlier work.
Data set [7] can be described thus: Protein thermal unfolding by dye-free nanoDSF. Conditions: purified protein alone, 20 to 95 °C. In kind it is physicochemical. As to the method:
The stability of the different DDM-solubilized or SapNP-reconstituted proteins was followed using a nanoDSF (Prometheus NT.48 form NanoTemper Technologies, GmbH). The dye-free proteins were excited at 280 nm and their intrinsic fluorescence at 350 and 330 nm were measured as a function of temperature to monitor the fluorescence changes upon heat unfolding. 10 μL of protein solution at a concentration of 0.5 mg/mL were loaded in a glass capillary, and the unfolding was measured in duplicates at a heating rate of 1 °C/min between 20 and 95 °C. The first derivative of the unfolding curves (350/330 nm ratio) was used to determine the transition midpoint (Tm).
On the technique in general: Differential scanning fluorimetry follows unfolding on heating by fluorescence.

A word on the Kd: it is the constant that tells how readily two partners part at equilibrium. As usually defined, the stoichiometry N is a count of units in the complex or per binding partner.

Like-named read-outs stand apart in the source and are kept apart here. Residues, ends and D or L forms follow the SMILES beside them.

As to `C[C@H](N)C(=O)N[C@@H](Cc1ccccc1)C(=O)N[C@@H](C)C(=O)O` [Ala-Phe-Ala] (H-Ala-Phe-Ala-OH; N-terminus and C-terminus assumed), the Kd on PepTSo2 (PepTSo2 in DDM) worked out at 3.4 ± 1.3 mM; at PepTSo2 (PepTSo2 reconstituted in SapA/BL), 5 ± 3 mM.
For `CC(C)C[C@H](N)C(=O)N[C@@H](C)C(=O)O` [Leu-Ala] (H-Leu-Ala-OH; N-terminus and C-terminus assumed), the unspecific peptide binding entry in data set [1] was “no unspecific peptide binding”. The Kd at PepTSt (PepTSt in DDM) was 16.6 ± 3.6 mM; at PepTSt (PepTSt in SapA/BL), 16.4 ± 3.6 mM; on PepTSt (PepTSt in SapA/POPS), 5.49 ± 1 mM.
Turning to dipeptide Leu-Ala, the Kd in data set [2] was determined as 5.49 mM; in data set [3], 16.4 mM; in [4] it was 16.6 mM.
Molecule “small-conductance mechanosensitive channel T2 from Thermoplasma volcanium (natural protein)” showed a stoichiometry N in data set [5] of 7.

B1: PepTSo2: peptide transporter from Shewanella oneidensis (protein)
chain: T1 sequence (Q8EHE6 1-516)
For the molecule B1, the Tm was 72 °C in data set [6] (encapsulated in SapA/BL nanoparticles) and 43 °C in [6] (in the detergent nonyl-β-D-maltopyranoside).

B2: saposin A: human saposin A, Prosaposin residues 60 to 140, recombinant (protein)
chain: T2 sequence (P07602 60-140)
modifications: left off: His6, N-terminal, cleaved
notes: human saposin A, Prosaposin residues 60 to 140, recombinant
Turning to B2, the unfolding transition entry in data set [7] is given as “does not show an unfolding transition”.

Source of the values: PMC5807053, “Saposin Lipid Nanoparticles: A Highly Versatile and Modular Tool for Membrane Protein Research” (Structure(London, England:1993), 2018).
